Experimental findings from US20170283495A1 (published 2017) are described below.

In one experiment the target is T1, NT-biotin hepcidin-25 (NT-biotin (biotin label; NT is not spelled out, taken as the N-terminus)).
T1 peptide: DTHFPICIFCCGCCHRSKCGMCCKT
Nature of the experiment: Biacore (SPR); 5 µg/ml 583. A general note: Surface plasmon resonance follows binding to a sensor surface in real time, without labels.

In a further experiment the target is T2, K18-biotin hepcidin-25 (biotin on K18).
T2 peptide: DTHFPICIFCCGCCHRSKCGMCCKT
The experiment can be described thus: Biacore (SPR); 5 µg/ml 583.

B1: murine anti-hepcidin MAb 583 (antibody, V domains shown)
VH: QIQLVQSGPELKKPGETVKISCKASGYTFTNYGMNWVKQAPGKGLKWMGWINTYTGEPTYADDFKGRFAFSLETSASTAYLQINNLKNEDTATYFCTTYATSWYWGQGTTLTVSS
VL: DIVLTQSPASLAVSLGQRATISCRASESVDSYGNSFMHWYQQKPGQPPKLLIYRASNLESGIPARFSGSGSRTDFTLTINPVEADDVATYYCQQSNEDLTFGGGTKLEIK
For B1, the Ka with NT-biotin hepcidin-25 came out at 5.47e+10 M⁻¹; with K18-biotin hepcidin-25, 1.34e+11 M⁻¹.
